Laboratory results from paper PMC11922745, “Reconstitution of SPO11-dependent double-strand break formation” (Nature, 2024).

Experiments:
[1] = molecular target: T1, SPO11 Y138F;TOP6BL (Mus musculus;Mus musculus, UniProt Q9WTK8;J3QMY9 1-396;1-579, Y138F|); assay: EMSA; 5 mM Mg2+; apparent Kd; Hairpin EMSA: 25 mM Tris-HCl pH 7.5, 100 mM NaCl, 5 mM MgCl2, 7.5% glycerol, 2 mM DTT, 1 mg/ml BSA, 0.1 nM DNA, 30 min 30 C; cleavage-oligo EMSA: 25 mM HEPES-NaOH pH 7.5, 50 mM NaCl, 5 mM MgCl2, 7.5% glycerol, 1 mg/ml BSA, 2 mM DTT, 4 C; conditions: protein: recombinant;recombinant, tags: N-terminal Flag-TEV;untagged, copies: 1;1, label: 5'-32P, 5' overhang 2 nt
T1 sequence 1: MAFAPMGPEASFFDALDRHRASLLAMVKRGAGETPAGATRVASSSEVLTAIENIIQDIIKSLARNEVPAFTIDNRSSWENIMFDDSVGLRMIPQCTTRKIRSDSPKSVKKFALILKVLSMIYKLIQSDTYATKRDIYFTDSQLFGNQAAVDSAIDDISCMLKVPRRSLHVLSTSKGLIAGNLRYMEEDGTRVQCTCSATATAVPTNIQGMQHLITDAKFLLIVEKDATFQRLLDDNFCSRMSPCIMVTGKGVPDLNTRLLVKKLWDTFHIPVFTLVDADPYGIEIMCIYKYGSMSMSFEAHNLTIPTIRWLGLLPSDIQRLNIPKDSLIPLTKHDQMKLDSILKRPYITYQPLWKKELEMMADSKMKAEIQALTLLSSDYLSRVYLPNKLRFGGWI
T1 sequence 2: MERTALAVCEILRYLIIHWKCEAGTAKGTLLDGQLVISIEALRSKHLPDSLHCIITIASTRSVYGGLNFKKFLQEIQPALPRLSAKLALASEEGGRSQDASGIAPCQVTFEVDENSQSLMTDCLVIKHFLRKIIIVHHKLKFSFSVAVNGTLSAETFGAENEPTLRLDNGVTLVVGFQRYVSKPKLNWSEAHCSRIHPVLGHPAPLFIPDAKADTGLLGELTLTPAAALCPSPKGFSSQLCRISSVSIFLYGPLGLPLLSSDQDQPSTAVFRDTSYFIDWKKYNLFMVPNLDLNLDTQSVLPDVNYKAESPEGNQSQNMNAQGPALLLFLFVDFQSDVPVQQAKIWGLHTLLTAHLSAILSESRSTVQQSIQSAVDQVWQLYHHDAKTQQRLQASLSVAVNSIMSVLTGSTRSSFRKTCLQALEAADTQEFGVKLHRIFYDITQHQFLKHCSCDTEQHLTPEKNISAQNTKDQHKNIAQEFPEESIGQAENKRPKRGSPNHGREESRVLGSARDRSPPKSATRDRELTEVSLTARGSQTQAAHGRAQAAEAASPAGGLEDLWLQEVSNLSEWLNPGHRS

[2] = molecular target: T2, SPO11 E224A;TOP6BL (Mus musculus;Mus musculus, UniProt Q9WTK8;J3QMY9 1-396;1-579, E224A|); assay: EMSA; 5 mM Mg2+; DNA binding retained; Kd value only in figure; Hairpin EMSA: 25 mM Tris-HCl pH 7.5, 100 mM NaCl, 5 mM MgCl2, 7.5% glycerol, 2 mM DTT, 1 mg/ml BSA, 0.1 nM DNA, 30 min 30 C; cleavage-oligo EMSA: 25 mM HEPES-NaOH pH 7.5, 50 mM NaCl, 5 mM MgCl2, 7.5% glycerol, 1 mg/ml BSA, 2 mM DTT, 4 C; conditions: protein: recombinant;recombinant, tags: N-terminal Flag-TEV;untagged, copies: 1;1, label: 5'-32P, 5' overhang 2 nt
T2 sequence 1: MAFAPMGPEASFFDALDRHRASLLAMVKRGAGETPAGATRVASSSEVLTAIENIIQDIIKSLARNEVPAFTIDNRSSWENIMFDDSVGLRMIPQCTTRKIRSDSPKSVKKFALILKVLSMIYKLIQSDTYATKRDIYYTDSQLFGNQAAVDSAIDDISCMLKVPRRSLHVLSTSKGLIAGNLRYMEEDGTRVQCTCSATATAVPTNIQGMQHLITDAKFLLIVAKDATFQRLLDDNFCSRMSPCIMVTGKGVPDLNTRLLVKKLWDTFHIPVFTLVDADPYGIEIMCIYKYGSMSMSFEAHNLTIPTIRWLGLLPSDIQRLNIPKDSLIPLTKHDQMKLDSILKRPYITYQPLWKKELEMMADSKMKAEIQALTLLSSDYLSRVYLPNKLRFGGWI
T2 sequence 2: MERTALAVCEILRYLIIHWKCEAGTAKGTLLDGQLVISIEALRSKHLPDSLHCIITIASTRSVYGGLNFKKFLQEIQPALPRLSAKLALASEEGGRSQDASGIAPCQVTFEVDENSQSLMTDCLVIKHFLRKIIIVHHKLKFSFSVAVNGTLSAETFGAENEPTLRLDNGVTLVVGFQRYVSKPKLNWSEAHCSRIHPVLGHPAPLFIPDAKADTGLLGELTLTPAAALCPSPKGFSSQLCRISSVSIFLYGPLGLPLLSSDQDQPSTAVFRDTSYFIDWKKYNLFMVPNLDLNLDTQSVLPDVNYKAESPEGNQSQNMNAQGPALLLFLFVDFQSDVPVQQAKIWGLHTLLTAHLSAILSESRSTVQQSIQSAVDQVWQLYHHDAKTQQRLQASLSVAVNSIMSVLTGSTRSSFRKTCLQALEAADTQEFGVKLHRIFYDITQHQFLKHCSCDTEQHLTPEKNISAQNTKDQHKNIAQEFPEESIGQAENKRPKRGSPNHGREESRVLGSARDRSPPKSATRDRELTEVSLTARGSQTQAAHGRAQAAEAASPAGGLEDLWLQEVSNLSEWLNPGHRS

[3] = molecular target: T3, SPO11 (beta isoform);TOP6BL (Mus musculus;Mus musculus, UniProt Q9WTK8;J3QMY9 1-396;1-579, |); assay: EMSA; 5 mM Mg2+; apparent Kd, end binding; second shift at >=25 nM; Hairpin EMSA: 25 mM Tris-HCl pH 7.5, 100 mM NaCl, 5 mM MgCl2, 7.5% glycerol, 2 mM DTT, 1 mg/ml BSA, 0.1 nM DNA, 30 min 30 C; cleavage-oligo EMSA: 25 mM HEPES-NaOH pH 7.5, 50 mM NaCl, 5 mM MgCl2, 7.5% glycerol, 1 mg/ml BSA, 2 mM DTT, 4 C; conditions: protein: recombinant;recombinant, tags: N-terminal Flag-TEV;untagged, copies: 1;1, label: 5'-32P, 5' overhang 2 nt
T3 sequence 1: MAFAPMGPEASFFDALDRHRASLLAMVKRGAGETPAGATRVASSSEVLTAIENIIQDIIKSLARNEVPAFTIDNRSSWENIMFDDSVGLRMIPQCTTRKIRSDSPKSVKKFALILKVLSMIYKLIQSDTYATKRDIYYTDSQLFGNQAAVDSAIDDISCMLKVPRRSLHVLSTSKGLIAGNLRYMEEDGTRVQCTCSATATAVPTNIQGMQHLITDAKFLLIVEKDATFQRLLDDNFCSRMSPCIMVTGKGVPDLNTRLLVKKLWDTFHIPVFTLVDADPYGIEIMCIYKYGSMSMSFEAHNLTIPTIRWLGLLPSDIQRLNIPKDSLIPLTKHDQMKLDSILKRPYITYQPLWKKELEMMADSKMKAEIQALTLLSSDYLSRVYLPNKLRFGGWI
T3 sequence 2: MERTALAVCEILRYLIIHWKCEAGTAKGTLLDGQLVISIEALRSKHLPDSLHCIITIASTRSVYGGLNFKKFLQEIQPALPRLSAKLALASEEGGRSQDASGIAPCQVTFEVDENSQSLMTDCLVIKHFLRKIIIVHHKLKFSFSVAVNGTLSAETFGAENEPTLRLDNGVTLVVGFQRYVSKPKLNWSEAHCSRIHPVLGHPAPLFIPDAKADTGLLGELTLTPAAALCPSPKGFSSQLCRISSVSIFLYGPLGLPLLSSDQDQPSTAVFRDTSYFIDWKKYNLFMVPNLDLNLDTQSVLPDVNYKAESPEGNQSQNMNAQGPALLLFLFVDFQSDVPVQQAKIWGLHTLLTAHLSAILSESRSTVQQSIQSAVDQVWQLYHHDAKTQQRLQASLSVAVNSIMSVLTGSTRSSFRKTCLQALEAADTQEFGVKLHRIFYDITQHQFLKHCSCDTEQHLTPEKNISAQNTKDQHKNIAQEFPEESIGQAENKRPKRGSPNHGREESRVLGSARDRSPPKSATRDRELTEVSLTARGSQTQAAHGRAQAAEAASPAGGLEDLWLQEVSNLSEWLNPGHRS

[4] = molecular target: T3, SPO11 (beta isoform);TOP6BL; assay: EMSA; double-end binding possible at 0.8 nM; Hairpin EMSA: 25 mM Tris-HCl pH 7.5, 100 mM NaCl, 5 mM MgCl2, 7.5% glycerol, 2 mM DTT, 1 mg/ml BSA, 0.1 nM DNA, 30 min 30 C; cleavage-oligo EMSA: 25 mM HEPES-NaOH pH 7.5, 50 mM NaCl, 5 mM MgCl2, 7.5% glycerol, 1 mg/ml BSA, 2 mM DTT, 4 C; conditions: protein: recombinant;recombinant; tags: N-terminal Flag-TEV;untagged; copies: 1;1; label: 5'-32P; 5' overhang 2 nt (TA) at both ends
[5] = molecular target: T3, SPO11 (beta isoform);TOP6BL; assay: EMSA; double-end binding; Hairpin EMSA: 25 mM Tris-HCl pH 7.5, 100 mM NaCl, 5 mM MgCl2, 7.5% glycerol, 2 mM DTT, 1 mg/ml BSA, 0.1 nM DNA, 30 min 30 C; cleavage-oligo EMSA: 25 mM HEPES-NaOH pH 7.5, 50 mM NaCl, 5 mM MgCl2, 7.5% glycerol, 1 mg/ml BSA, 2 mM DTT, 4 C; conditions: protein: recombinant;recombinant; tags: N-terminal Flag-TEV;untagged; copies: 1;1; label: 5'-32P; 5' overhang 2 nt (TA) at both ends
[6] = molecular target: T3, SPO11 (beta isoform);TOP6BL; assay: EMSA; double-end binding disfavoured at 0.8 nM, restored at higher protein; Hairpin EMSA: 25 mM Tris-HCl pH 7.5, 100 mM NaCl, 5 mM MgCl2, 7.5% glycerol, 2 mM DTT, 1 mg/ml BSA, 0.1 nM DNA, 30 min 30 C; cleavage-oligo EMSA: 25 mM HEPES-NaOH pH 7.5, 50 mM NaCl, 5 mM MgCl2, 7.5% glycerol, 1 mg/ml BSA, 2 mM DTT, 4 C; conditions: protein: recombinant;recombinant; tags: N-terminal Flag-TEV;untagged; copies: 1;1; label: 5'-32P; 5' overhang 2 nt (TA) at both ends

B1: 25 bp hairpin, 2-nt 5' overhang (structured_DNA)
DNA: TAGCAATGTAATCGTCTATGACGTTAACGTCATAGACGATTACATTGC
- Kd [1]: 570 ± 30 pM
- binding result [2]: binds
- Kd [3]: 590 ± 50 pM

B2: 22 bp double-overhang duplex (dsDNA)
DNA 1: TAGCAATGTAATCGTCTATGACGT
DNA 2: TAACGTCATAGACGATTACATTGC
- binding result [4]: binds

B3: 28 bp double-overhang duplex (dsDNA)
DNA 1: TAGCAATGTAATCGTCTATGACGTTAGCGC
DNA 2: TAGCGCTAACGTCATAGACGATTACATTGC
- binding result [5]: binds

B4: 24 bp double-overhang duplex (dsDNA)
DNA 1: TAGCAATGTAATCGTCTATGACGTTA
DNA 2: TATAACGTCATAGACGATTACATTGC
- binding result [6]: binds

B5: 23 bp double-overhang duplex (dsDNA)
DNA 1: TAGCAATGTAATCGTCTATGACGTT
DNA 2: TAAACGTCATAGACGATTACATTGC
- binding result [4]: binds
